Columns and labels:
[1] = biological target: T1, recombinant purified FRα (ECL assay calibrator) (human, UniProt P15328 25-234); assay: ECL sandwich, FRα calibrator; capture 6A2.G7; binder = detection Ab
T1 construct: Calibrator of the ECL sandwich assays; also called FRα calibrator; FRα standard

[2] = biological target: T1, recombinant purified FRα (ECL assay …); assay: ECL sandwich, FRα calibrator; capture 19D2.G9; binder = detection Ab
[3] = biological target: T1, recombinant purified FRα (ECL assay …); assay: ECL sandwich, FRα calibrator; capture 24H8.D3; binder = detection Ab
[4] = biological target: T1, recombinant purified FRα (ECL assay …); assay: ECL sandwich, FRα calibrator; capture 24H8.F3; binder = detection Ab
[5] = biological target: T1, recombinant purified FRα (ECL assay …); assay: ECL sandwich, FRα calibrator; capture 26A9.C4; binder = detection Ab
[6] = biological target: T1, recombinant purified FRα (ECL assay …); assay: ECL sandwich, FRα calibrator; capture 2F11.F8; binder = detection Ab
[7] = biological target: T1, recombinant purified FRα (ECL assay …); assay: ECL sandwich, FRα calibrator; capture 5C12.H8; binder = detection Ab
[8] = biological target: T1, recombinant purified FRα (ECL assay …); assay: ECL sandwich, FRα calibrator; capture 19D4.B7; binder = detection Ab
[9] = biological target: T1, recombinant purified FRα (ECL assay …); assay: ECL sandwich, FRα calibrator; capture 28H12.G9; binder = detection Ab
[10] = biological target: T1, recombinant purified FRα (ECL assay …); assay: ECL sandwich, FRα calibrator; capture 1C6.E12.G8; binder = detection Ab
[11] = biological target: T1, recombinant purified FRα (ECL assay …); assay: ECL sandwich, FRα calibrator; capture 1D2.G8.G10; binder = detection Ab
[12] = biological target: T1, recombinant purified FRα (ECL assay …); assay: ECL sandwich, FRα calibrator; capture 1A8.G11.E7; binder = detection Ab
[13] = biological target: T2, human folate receptor beta (FRβ), recombinant, C-terminal 6xHis (human, UniProt P14207 17-230, limits assumed); assay: direct ELISA, plates coated with 1 µg/mL FR isoform, dilution series of culture supernatant
T2 construct: Transiently expressed in 293F cells and purified; coated on ELISA plates

[14] = biological target: T3, human folate receptor gamma (FRγ), recombinant, C-terminal 6xHis (human, UniProt P41439 23-245, limits assumed); assay: as above
T3 construct: Transiently expressed in 293F cells and purified; coated on ELISA plates

[15] = biological target: T1, recombinant purified FRα (ECL assay …); assay: ECL sandwich, FRα calibrator; capture 30G6.G6.G4.E9; binder = detection Ab
[16] = biological target: T1, recombinant purified FRα (ECL assay …); assay: ECL sandwich on FRα, signal to background; capture 6A2.G7; binder = detection Ab
[17] = biological target: T1, recombinant purified FRα (ECL assay …); assay: ECL sandwich on FRα, signal to background; capture 19D2.G9; binder = detection Ab
[18] = biological target: T1, recombinant purified FRα (ECL assay …); assay: ECL sandwich on FRα, signal to background; capture 24H8.D3; binder = detection Ab
[19] = biological target: T1, recombinant purified FRα (ECL assay …); assay: ECL sandwich on FRα, signal to background; capture 24H8.F3; binder = detection Ab
[20] = biological target: T1, recombinant purified FRα (ECL assay …); assay: ECL sandwich on FRα, signal to background; capture 26A9.C4; binder = detection Ab
[21] = biological target: T1, recombinant purified FRα (ECL assay …); assay: ECL sandwich on FRα, signal to background; capture 2F11.F8; binder = detection Ab
[22] = biological target: T1, recombinant purified FRα (ECL assay …); assay: ECL sandwich on FRα, signal to background; capture 5C12.H8; binder = detection Ab
[23] = biological target: T1, recombinant purified FRα (ECL assay …); assay: ECL sandwich on FRα, signal to background; capture 19D4.B7; binder = detection Ab
[24] = biological target: T1, recombinant purified FRα (ECL assay …); assay: ECL sandwich on FRα, signal to background; capture 28H12.G9; binder = detection Ab
[25] = biological target: T1, recombinant purified FRα (ECL assay …); assay: ECL sandwich on FRα, signal to background; capture 1C6.E12.G8; binder = detection Ab
[26] = biological target: T1, recombinant purified FRα (ECL assay …); assay: ECL sandwich on FRα, signal to background; capture 1D2.G8.G10; binder = detection Ab
[27] = biological target: T1, recombinant purified FRα (ECL assay …); assay: ECL sandwich on FRα, signal to background; capture 1A8.G11.E7; binder = detection Ab
[28] = biological target: T1, recombinant purified FRα (ECL assay …); assay: ECL sandwich on FRα, signal to background; capture 30G6.G6.G4.E9; binder = detection Ab

T1 sequence (P15328 25-234 limits assumed): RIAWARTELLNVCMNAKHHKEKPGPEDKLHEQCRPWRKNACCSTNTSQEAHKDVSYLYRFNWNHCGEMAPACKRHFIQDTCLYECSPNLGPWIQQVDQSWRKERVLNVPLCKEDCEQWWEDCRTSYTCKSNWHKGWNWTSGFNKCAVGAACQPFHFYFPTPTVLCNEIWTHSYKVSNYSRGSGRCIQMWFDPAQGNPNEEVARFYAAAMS
T2 sequence (P14207 other isoform, or with tags, fused parts or gaps limits assumed): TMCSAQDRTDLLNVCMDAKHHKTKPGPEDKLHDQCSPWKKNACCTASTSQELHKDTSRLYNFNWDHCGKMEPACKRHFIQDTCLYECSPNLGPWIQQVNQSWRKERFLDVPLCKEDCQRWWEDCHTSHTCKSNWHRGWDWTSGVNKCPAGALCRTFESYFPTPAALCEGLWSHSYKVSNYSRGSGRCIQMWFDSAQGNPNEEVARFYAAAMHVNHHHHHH
T3 sequence (P41439 other isoform, or with tags, fused parts or gaps limits assumed): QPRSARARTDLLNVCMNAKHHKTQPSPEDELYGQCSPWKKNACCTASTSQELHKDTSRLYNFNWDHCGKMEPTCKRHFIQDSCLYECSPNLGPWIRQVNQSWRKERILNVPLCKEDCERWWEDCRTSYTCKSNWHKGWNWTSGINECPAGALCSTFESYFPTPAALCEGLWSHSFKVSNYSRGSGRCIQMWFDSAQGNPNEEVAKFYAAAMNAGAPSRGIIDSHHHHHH

Row | Specific signal at 500 pg/mL [1] | Specific signal at 500 pg/mL [2] | Specific signal at 500 pg/mL [3] | Specific signal at 500 pg/mL [4] | Specific signal at 500 pg/mL [5] | Specific signal at 500 pg/mL [6] | Specific signal at 500 pg/mL [7] | Specific signal at 500 pg/mL [8] | Specific signal at 500 pg/mL [9] | Specific signal at 500 pg/mL [10] | Specific signal at 500 pg/mL [11] | Specific signal at 500 pg/mL [12] | binding result [13] | binding result [14] | Specific signal at 500 pg/mL [15] | Average of S/B [16] | Average of S/B [17] | Average of S/B [18] | Average of S/B [19] | Average of S/B [20] | Binder | other results
1 | 1930 | 110 | 69 | 88 | 81 | 64 | 69 | 40500 | 97 | 59 | 52 | 71 | no binding | no binding | 20300 | 38 | 2 | 1 | 1 | 1 | Monoclonal antibody 24H8.D3 (antibody, mouse IgG1, V domains shown, Biotin-conjugated when used as capture antibody in the ECL assay; also called ATCC PTA-123090) VH: QVQLKESGPGLVAPSQSLSITCTVSGFSLTSYGVSWVRQPPGKGLEWLGVIWGDGSTNYHSTLISRLSISKDNSKSQVFLKLNSLQTDDTATYYCAKPHPAATGAMDYWGQGTSVTVSS VL: DIQMTQTTSSLSASLGDRVTISCRASQDISNHLNWYQQKPDGTIKLLIYYTSKLHSGVPSRFSGSGSGTDYSLTISNLEQEDIATYFCQQGNTLWTFGGGTKLEIK | Average of S/B [21]: 1; Average of S/B [22]: 1; Average of S/B [23]: 332; Average of S/B [24]: 1; Average of S/B [25]: 1; Average of S/B [26]: 1; Average of S/B [27]: 1; Average of S/B [28]: 273
2 | 1840 | 106 | 84 | 87 | 80 | 60 | 76 | 41400 | 83 | 75 | 64 | 67 | no binding | no binding | 17900 | 27 | 2 | 1 | 1 | 1 | Monoclonal antibody 1A8.G11.E7 (antibody, mouse IgG1, V domains shown, Murine IgG1 kappa from hybridoma; also called ATCC PTA-123100) VH: ESGPGLVAPSQSLSITCTVSGFSLTSYGVSWVRQPPGKGLEWLGVIWGDGSTNYHSTLISRLSISKDNSKSQVFLKLNSLQTDDTATYYCAKPHPAATGAMDYWGQGTSVTVSS VL: TQTTSSLSASLGDRVTISCRASQDISNHLNWYQQKPDGTVKLLIYYTSRLHSGVPSRFSGSGSGTDYSLTISNLEQEDIATYFCQQGNTLWTFGGGTKLEIK | Average of S/B [21]: 1; Average of S/B [22]: 1; Average of S/B [23]: 310; Average of S/B [24]: 1; Average of S/B [25]: 1; Average of S/B [26]: 1; Average of S/B [27]: 1; Average of S/B [28]: 244
3 | 1870 | 242 | 158 | 104 | 72 | 61 | 70 | 33600 | 85 | 64 | 64 | 139 | no binding | no binding | 28300 | 27 | 4 | 2 | 1 | 1 | Monoclonal antibody 24H8.F3 (antibody, mouse IgG1, V domains shown, Murine IgG1 kappa from hybridoma; also called ATCC PTA-123097) VH: GPGLVAPSQSLSITCTVSGFSLTSYGVSWVRQPPGKGLEWLGVIWGDGSTNYHSTLISRLSISKDNSKSQVFLKLNSLQTDDTATYYCAKPHPAATGAMDYWGQGTSVTVSS VL: TTSSLSASLGDRVTISCRASQDISNHLNWYQQKPDGTIKLLIYYTSKLHSGVPSRFSGSGSGTDYSLTISNLEQEDIATYFCQQGNTLWTFGGGTKLEIK | Average of S/B [21]: 1; Average of S/B [22]: 2; Average of S/B [23]: 327; Average of S/B [24]: 2; Average of S/B [25]: 1; Average of S/B [26]: 1; Average of S/B [27]: 2; Average of S/B [28]: 501

— patent publication US20180148504A1 (EISAI R AND D MANAGEMENT, published 2018)
